Experiments:
total spleen cells = assay: In vitro proliferation assay of splenocytes (3H-thymidine uptake); assay type: cell-based, mouse
Description: Briefly, freshly recovered splenocytes from 8 week old male Balb/c mice seeded at a concentration of 5×10^4 cells/well were incubated for 24, 48 and 72 h in 5% FCS RPMI-1640 medium. A 16 h ^3H-thymidine pulse at 1 μCi/well was performed before harvesting. ^3H-Thymidine uptake was determined in a beta-plate liquid scintillation counter (LKB-Wallac). All points were done in triplicate and the corresponding standard deviation calculated. For comparison, ^3H-thymidine uptake after 48 h in the presence of ConA (10 μg/ml) and LPS (5 μg/ml) was 32000 c.p.m. and 3500 c.p.m., respectively. T-cell depletion was performed by incubating freshly recovered spleen cells for 30 min at 37° C. in the presence of anti-Thy 1.2 monoclonal antibody (Cedarlane) and rabbit complement (Cedarlane). In order to rule out a possible mitogenic effect due to LPS contamination in samples, proliferation assays were also performed on freshly recovered splenocytes from the LPS non-responder mouse strain C3H/Hej. Same levels of proliferation were verified. Balb/c mice were purchased from Charles River, France. C3H/Hej mice were maintained in our animal facilities.
In vitro proliferation is accomplished using freshly recovered splenocytes from BALB/c mice seeded at a density of 5×10^4 cells/well and incubated for 24, 48 and 72 h with increasing concentrations of total parasite supernatants or recombinant TcPa45 protein or other mitogen (0.07-200 μg/ml) with 0.5 μg/ml of the HPLC fractions, or with the conventionally used mitogens concanavalin A (10 μg/ml) and lipopolysaccharide (5 μg/ml) in 5% FCS in RPMI-1640 complete medium. T-cell depletion is accomplished by incubating freshly recovered spleen cells for 30 min. at 37° C. in the presence of monoclonal antibodies against Thy 1.2 and rabbit complement (Cedarlane, Le Perray en Yvelines, France). Analysis of proliferative activity of total splenocytes (5×10^4 cells/well) in the presence of 50 μg/ml enzymatically active rTcPA45 or other mitogen is also compared with the proliferation obtained using the same amounts of rTcPA45 protein or other mitogen lacking racemase activity (by heating for 10 min. at […] or by long term storage at 4° C.). Inhibition of proliferation is obtained by adding to the splenocyte cultures 50 μg/ml rTcPA45 or other mitogen pre-incubated for 10 min. at 37° C. with 1 mM inhibitor, either specific (pyrrole-2-carboxylic acid) or nonspecific (iodoacetamide or iodoacetate). Competitive assays of proliferative activity by 50 μg/ml rtcPA45 or other mitogen are done by adding increasing concentrations of specific substrates i.e., proline racemase substrates (L- or D-proline) for the mitogen rTcPA45 ranging from 3 mM to 50 mM. Controls include the incubation of splenocytes (5×10^4 cells/well) with substrate alone, i.e., 50 mM L- or D-proline in RPMI medium alone for prline racemase. Cultures are collected after a 16-hour pulse or 1 μCi/well ^3H-thymidine uptake was determined in a beta-plate liquid scintillation counter (LKB-Wallac, Orsay, France). All data points are obtained in triplicate and the corresponding standard deviation is calculated.
5×10^5 naive spleen cells/well (96 well plate) were stimulated in vitro with different doses of rTcPA45 (ranging in FIG. 4b from 0.8 to 200 μg/ml final) for 24, 48 and 72 h, at 37° C., 5% CO2. Cultures were pulsed with ^3H-Thymidine (1 μCi/well) for 16-18 h before harvesting. ^3H-thymidine incorporation was obtained after counting using a beta-plate. Results present arithmetic means of c.p.m. (counts/minute) from 6 wells/dose of rTcPA45 or wells containing medium alone (+/−SD of the means). (FIG. 4b)

Trypanosoma cruzi = assay: rTcPA45 sub-mitogenic immunization followed by infective challenge, parasitemia; assay type: in vivo
Description: FIG. 14B. rTcPA45 injection. 6 week old BALB/c mice were injected intraperitoneally (i.p.) with 10 ηg of rTcPA45 and then boosted i.p. one week later with 50 μg of rTcPA45. Mice were challenged 1 week after the boost with 10^4 infective forms of the parasite/mouse, and the parasitemia was scored during 30 days.
As with classical B cell mitogens, rTcPA45 mitogenicity is dose-dependent (FIG. 1). As for classical B cell mitogens, mouse specific immune responses directed to mitogenic rTcPA45 is indeed possible (Western blot FIG. 12) following a protocol of immunization which consisted of with 1 injection (i.p.) of a sub-mitogenic (10 ng/mouse) dose of the protein followed by an additional boost with a mitogenic dose of rTcPA45 (50 μg/mouse) one week later.
These additional results do support the claim that mitogenic moieties are potential targets for vaccination approaches against Trypanosoma cruzi infection. (See FIG. 14(b).)

[1] = tested on: spleen cells / Ig-producing B cells; assay: Mitogenicity of rTcPA45 in vivo assessed by ELISPOT; design: species or system mouse
Description: BALB/c mice were injected or not with 50 μg of rTcPA45 (i.p.), and spleen cells assayed day 7 after injection. Results represent total numbers of spleen cells, total number of B cells producing IgM, IgG2a, or IgG2b isotypes, and total numbers of isotype-producing B cells specific of the protein.
Mice were injected or not with 50 μg of iTcPA45 (i.p.). […] Numbers of Ig-secreting cells (total or specific to rTcPA45) were determined by Elispot assay, as follows:
Flat bottomed 96 well ELISA plates, were coated with either goat anti-mouse Ig or with rTcPA45 and incubated at 4° C. overnight. Plates were blocked with PBS-gelatin, washed with PBS-Tween and with RPMI medium. 100 μl of different spleen cell concentrations per well (in RPMI containing 2% FCS) were incubated for 8 hours at 37° C., 5% CO2. A row in the plate containing serial dilutions of purified immunoglobulin (IgM, IgG2a, or IgG2b) was used as standard. After lysis of the cells with H20-Tween, plates were then washed with PBS-Tween and incubated with respective biotin-labeled antibodies directed to (IgM, IgG2b, or IgG2a isotypes), overnight at 4EC. After washing, plates were incubated for 45-60 minutes with avidin-alkaline phosphatase and further incubated with substrate (2-amino-2-methyl-propanol buffer containing BCIP) 2-4 hours, 37° C. (until the spots are “dark” blue). Spots correspond to immunoglobulin-producing B-cell (of a particular isotype) directed to the coated antigen (here: goat anti-mouse immunoglobulins or rTcPA45). Spots are then counted and numbers corrected to total number of spleen cells according to the dilution. (See Table I and FIG. 7.)

[2] = spleen lymphocytes, up to 72 h culture
[3] = BALB/c mice, 50 μg/mouse i.p., 7 days after injection

B1: rTcPA45: recombinant T. cruzi polyclonal activator 45, B-cell mitogen and proline racemase, codons 30-423 with C-terminal 6×His tag, from E. coli (protein)
chain: RTGQEKLLFDQKYKIIKGEKKEKKKNQRANRREHQQKREIMRFKKSFTCIDMHTEGEAARIVTSGLPHIPGSNMAEKKAYLQENMDYLRRGIMLEPRGHDDMFGAFLFDPIEEGADLGMVFMDTGGYLNMCGHNSIAAVTAAVETGIVSVPAKATNVPVVLDTPAGLVRGTAHLQSGTESEVSNASIINVPSFLYQQDVVVVLPKPYGEVRVDIAFGGNFFAIVPAEQLGIDISVQNLSRLQEAGELLRTEINRSVKVQHPQLPHINTVDCVEIYGPPTNPEANYKNVVIFGNRQADRSPCGTGTSAKMATLYAKGQLRIGETFVYESILGSLFQGRVLGEERIPGVKVPVTKDAEEGMLVVTAEITGKAFIMGFNTMLFDPTDPFKNGFTLKQ
modifications: left off: small tags and cut ends
Q: Which “mitogenic activity of inactivated rTcPA45” value (total spleen cells; inactivated by being heated or by long storage at 4° C.) does the source give for B1 here?
A: Its value is “abolished”.

Q: And the “concentration at which proliferation peaks (bell-shaped dose-response curve)” value (total spleen cells; [2])?
A: The value was 50 µg/mL.

Q: What about the “concentration from which proliferation starts (bell-shaped dose-response curve)” value (total spleen cells; [2]) of the same molecule?
A: The value was 0.8 µg/mL.

Q: What about the parasitemia control (Trypanosoma cruzi; BALB/c mice, 10 ng i.p. then boost 50 μg i.p. one week later, challenge 10^4 parasites/mouse) of the same molecule?
A: Its parasitemia control is 90-95%.

Q: And the “parasitemia control compared with DNA vaccination (85% decrease)” value (Trypanosoma cruzi; sub-mitogenic doses of active rTcPA45 intraperitoneally 2 weeks before infective challenge)?
A: The value was “even higher levels of parasitemia control”.

Q: What about the “Ig-secreting B cells directed to TcPA45” value ([1]; 50 μg rTcPA45 i.p., day 7) of the same molecule?
A: The value was “complete lack”.

Q: And the “IgM secreting cells directed to the injected protein” value ([1]; 50 μg rTcPA45 i.p., day 7)?
A: Its value is “less than 0.5%”.

Q: And the “increase in total numbers of Ig-secreting B cells (IgM, IgG2a, IgG2b isotypes)” value ([1]; 50 μg rTcPA45 i.p., day 7)?
A: The value was 3-6 fold.

Q: What about the “increase in total spleen cell numbers” value ([1]; 50 μg rTcPA45 i.p., day 7) of the same molecule?
A: Its value is 2 fold.

Q: What about the “increase in spleen cell numbers” value ([1]; 50 μg rTcPA45 in vivo, by day 4) of the same molecule?
A: Its value is 2 fold.

Q: And the “rTcPA45-specific Ig-secreting B cells” value ([1]; 50 μg rTcPA45 in vivo, day 4)?
A: The value was “complete lack”.

Q: What about the “Total Number of Ig-producing B cells ANTI-rTc45MIT: IgG2a-B cells anti 45” value [1, 3] of the same molecule?
A: The value was “none”.

Q: What about the “Total Number of Ig-producing B cells ANTI-rTc45MIT: IgG2b-B cells anti 45” value [1, 3] of the same molecule?
A: Its value is “none”.

Q: What about the “Total Number of Ig-producing B cells ANTI-rTc45MIT: IgM-B cells anti 45” value [1, 3] of the same molecule?
A: Its value is 84.

Q: What about the “Total Number of Ig-producing B cells: IgG2a-producing cells” value [1, 3] of the same molecule?
A: The value was 9866 ± 3000.

Q: And the “Total Number of Ig-producing B cells: IgG2b-producing cells” value [1, 3]?
A: Its value is 14633 ± 3287.

Q: What about the “Total Number of Ig-producing B cells: IgM-producing cells” value [1, 3] of the same molecule?
A: The value was 371666 ± 94495.
